Source: US12065507B2 (priority 2020, dated 2024)
Where two headings read alike, the source gives them in different places.

Tests used:
[1] = read-out: Kd, morphine; 2 nM [H^3]-morphine, room temperature, 60 minutes, pH 7.4
Experimental: The binding constant of the antibody with [H^3]-morphine were tested using liquid scintillation counting. Briefly, 2 nM [H^3]-morphine was incubated with different concentration of antibody at room temperature for 60 minutes. The total volume of mixture was 100 and pH was 7.4.

[2] = Competitive binding of [H^3]-morphine against meperidine; details: read-out: Kd, meperidine; from IC50 against 2 nM [H^3]-morphine
[3] = Competitive binding of [H^3]-morphine against naloxone
[4] = Competitive binding of [H^3]-morphine against oxycodone; details: read-out: Kd, oxycodone; from IC50 against 2 nM [H^3]-morphine
[5] = Competitive binding of [H^3]-morphine against naltrexone
[6] = mice; cited from earlier work
[7] = cited from earlier work
[8] = collected from the references cited; read-out: Activities (Kd), Morphine; cited from earlier work
[9] = 10 μM competing drug, 60 nM antibody, 2 nM [H^3]-morphine
[10] = collected from the references cited, read-out: Activities (Kd), 6-MAM

B1: UK6Mab02: fully humanized antibody (H1L3) designed from Ab13, with human IgG1 heavy and kappa light constant regions (antibody, V domains shown)
VH: EVQLVQSGAEVKKPGASVKISCKASGYTFTSYWIEWVKQAPGKGLEWIGEINPSGGSTIYAEKFQGRATFTADTSTSTAYMELSSLRSEDTAVYYCARWVLDYYGMDYWGQGTSLTVSS
VL: QAVVTQEPSLTVSPGGTVTLTCGSSTGAVTSGNYANWVQQKPGQAFRGLIGGTNTRSSGVPDRFSGSLLGGKAALTISGAQPEDEAEYYCALWYSNKLVFGGGTKLTVL
modifications: H1 (UK6Mab02) Heavy Chain; L3 (UK6Mab02) - Light chain
- Kd [1]: 127 nM
- Kd [2]: 15.7 µM
- Binding with naloxone in initial screening [3, 9]: did not show significant binding affinities
- Kd ([3]; read-out: Kd, naloxone, from competition with 2 nM [H^3]-morphine): > 10 µM
- Kd [4]: 6.91 µM
- Binding with naltrexone in initial screening [5, 9]: did not show significant binding affinities
- Kd ([5]; read-out: Kd, naltrexone, from competition with 2 nM [H^3]-morphine): > 10 µM

B2: Ab17: known 6-MAM-specific mAb 6-MAM-214; heavy chain SEQ ID NO: 29, light chain SEQ ID NO: 55 (antibody, V domains shown)
VH: EVQLVESGGGLVQPGRSLRLSCAASGFSFGDYAIHMVRQAPGKGLEWVSGISWDSYTTGYADSVKGRFTVSRDNAKNSLYLQMNSLRPEDTAVYYCAKAPSPRRVIIEYFDSDYWGQGTSLTVSS
VL: QSALTQPASVSGAPGQTVSISCTGWSSNIGAGYDVHWYQQLPGTAPKLLISHNTNRPSGVPDRFSGSKSGTSASLAITGLQAEDEADYYCQSYDSTLGVVVEGGGTICLTVL
modifications: Ab17 - Heavy chain; Ab17 - Light chain
- Effect on acute heroin effects [6]: able to reduce the acute heroin effects in mice
- Kd [7, 10]: 300 nM
- Kd ([7]; literature value, read-out: affinity for 6-MAM): 300 nM
- Kd [8]: > 10 µM

B3: Ab19 (antibody, V domains shown)
VH: EVQLVESGGGLVQPGRSLRLSCAASGFSFGDYARIMVRQAPGKGLEWVSGISWDSYTTGYADSVKGRFTVSRDNAICNSLYLQMNSLRPEDTAVYYCAKAPSPRRVIIEYFDSDYWGGTSLTVSS
VL: QSVLTQPPSVSGAPGQRVTISCTGSSSNIGAGYDVHWYQQLPGTAPKLLIYGNSNRPSGVPDRFSGSKSGTSASLAITGLQAEDEADYYCQSYDSSLRGVVFGGGTKLTVL
modifications: Ab19 - Heavy chain; Ab19 - Light chain
- Kd [7, 10]: 160 nM
- Kd [8]: ≥ 10 µM

B4: Ab20: known anti-6-MAM antibody 6-MAM-102; heavy chain SEQ ID NO: 32, light chain SEQ ID NO: 58 (antibody, V domains shown)
VH: EVQLVESGGGLVQPGRSLRLSCAASGFSFGDYAIHMVRQAPGKGLEWVSGISWDSYTTGYADSVKGRFTVSRDNAKNSLYLQMNSLRPEDTAVYYCAKAPSPRRVHEYFDSDYWGQGTSLTVSS
VL: QSALTQPASVSGAPGQRVTMSCTGSSSNIGAGYDVHWYQQLPGTAPKLLIFGNTNRPSGVPDRFSASKSGTSASLAITGLQAEDEADYYCQSYDNSLSGVVFGGGTKLTVL
modifications: Ab20 - Heavy chain; Ab20 - Light chain
- Kd [7, 10]: 170 nM
- Kd [8]: > 10 µM

B5: Ab21: known anti-6-MAM antibody 6-MAM-103; heavy chain SEQ ID NO: 33, light chain SEQ ID NO: 59 (antibody, V domains shown)
VH: EVQLVESGGGLVQPGRSLRLSCAASGFSFGDYAIHMVRQAPGKGLEWVSGISWDSYTTGYADSVKGRFTVSRDNAICNSLYLQMNSLRPEDTAVYYCAKAPSPRRVIIEYFDSDYWGQGTSLTVSS
VL: QSALTQPASVSGAPGQRVTISCTGSSSNIGAGYDVHWYQQLPGTAPKLLIYGNSNRPSGVPDRFSGSKSGTSASLAITGLQAEDEADYYCQSYDSSLSGVVFGGGTKLTVL
modifications: Ab21 - Heavy chain; Ab21 - Light chain
- Kd [7, 10]: 100 nM
- Kd [8]: > 10 µM

B6: Ab22: known anti-6-MAM antibody 6-MAM-108; heavy chain SEQ ID NO: 34, light chain SEQ ID NO: 60 (antibody, V domains shown)
VH: EVQLVESGGGLVQPGRSLRLSCAASGFSFGDYAIHMVRQAPGKGLEWVSGISWDSYTTGYADSVKGRFTVSRDNAKNSLYLQMNSLRPEDTAVYYCAKAPSPRRVIIEYFDSDYWGQGTSLTVSS
VL: QSVLTQPPSVSGAPGQRVTISCTGSSSNIGAGYDVHWYQQLPGTAPKLLWGNSNRPSGVPDRFSGSKSGTSASLAITGLQAEDEADYYCQSYDSSLSGVVFGGGTKLTVL
modifications: Ab22 - Heavy chain; Ab22 - Light chain
- Kd [7, 10]: 170 nM
- Kd [8]: > 10 µM

B7: Ab24: known anti-6-MAM antibody 6-MAM-120; heavy chain SEQ ID NO: 36, light chain SEQ ID NO: 62 (antibody, V domains shown)
VH: EVQLVESGGGLVQPGRSLRLSCAASGFTFGDYAIHMVRQAPGKGLEWVAGISWDSYTTGYADSVKGRFTVSRDNAKNSLYLQMNSLRPEDTAVYYCAICAPSPRRVIIEYFQYDYWGQGTSLTVSS
VL: QSALTQPASVSGAPGQRVTISCTGSSSNIGAGYDVHWYQQLPGTAPKLLIYGNSNRPSGVPDRFSGSKSGTSASLAITGLQAEDEADYYCQSYDSSLSGVVFGGGTKLTVL
modifications: Ab24 - Heavy chain; Ab24 - Light chain
- Kd [7, 10]: 250 nM
- Kd [8]: > 10 µM
